For 1 substance, Km, kcat and kcat/Km results are on record in patent US6428997B1, “Aminopeptidase derived from Bacillus licheniformis and process for preparation of natural type proteins” (LG Chemical Ltd., priority 1997, dated 2002).

The test system of data set [1] is CC(C)C[C@H](N)C(=O)Nc1ccc([N+](=O)[O-])cc1. Briefly: purified protein, by the assay type. Particulars: other: Tris-Cl pH 8.0, 37° C., measured by same experiment, Lineweaver-Burk plot.
Procedure: (§1) Precisely, 1 U of enzyme activity defines the enzyme quantity changing 1 absorbance at 405 nm which is measured by the process adding aminopeptidase in 1 ml solution of 100M Tris-Cl (pH 8.0) and 2 mM leucine-p-nitroanilide (Sigma, USA), incubating at 37° C. for 1 min, then adding 100 μl of 70% acetic acid to stop the reaction. At that time leucine-p-nitroanilide was dissolved in dimethylsulfoxide (DMSO) to make 100 mM solution.
(§2) In order to compare substrate specificity of aminopeptidase of this invention, 2 kinds of substrate were used. In detail, one was synthetic substrates of p-nitroanilide derivative and purchased from Sigma, USA and the other was oligopeptide such as methionyl oligopeptide of SEQ. ID. NO: 1 which have amino acid sequence similar to N-terminus of methionyl HGH and leucyl oligopeptide of SEQ. ID. NO: 2.
(§3) Enzyme reaction of aminopeptidase was performed by the process described in Reference Examples. At that time p-nitroanilide derivative was used as synthetic substrate. Leucine p-nitroanilide was used as substrate to perform the reaction in concentration of 0.03125, 0.0625, 0.125, 0.25, 0.5, 1 mM and methionine p-nitroanilide in 0.125, 0.25, 0.5, 1 mM and aminopeptidase in 0.5 U respectively. Above reactions using leucine-p-nitroanilide proceeded for 2 min and methionine-p-nitroanilide for 40 min. Then 70% acetic acid was added to stop the reactions and absorbance at 405 nm was measured. The product concentration was measured by adopting absorbance constant ε405=9450M^−1 cm^−1.
(§4) In reaction condition mentioned above, initial velocity of enzyme reaction was measured with varying the substrate concentration. Lineweaver-Burk plot was used to determine Km value and Maximum reaction velocity of aminopeptidase from Bacillus licheniformis. In addition kcat and kcat/Km was determined by using Km value and maximum reaction velocity described above.
Data set [2] relates to CSCC[C@H](N)C(=O)Nc1ccc([N+](=O)[O-])cc1. In words: purified protein, by the assay type. The note with it: other: Tris-Cl pH 8.0, 37° C., measured by same experiment, Lineweaver-Burk plot.
Procedure: as §1, §2, §3, §4

The term Km denotes the concentration of substrate that gives half-maximal velocity. One may read the kcat as the maximal rate divided by the concentration of active sites. For orientation: kcat/Km means the turnover number divided by the Michaelis constant.

“Aeromonas proteolytica (Vibrio proteolytica) aminopeptidase (Vibrio proteolyticus)”: in data set [1], the Km amounted to 0.240 mM, the kcat was determined as 48 s⁻¹ and the kcat/Km was 200000 M⁻¹ s⁻¹. In addition, in data set [2], the Km is listed as 0.942 mM, the kcat turned out to be 2.64 s⁻¹ and the specificity constant (kcat/Km) is 2800 M⁻¹ s⁻¹.
